# According to paper PMC9089689 (ACS Omega, 2022):
# Where a chain is given by its changes, count along the chain named. Names may count otherwise.
# T1: Hup-WT (histone-like DNA binding protein HU) (Helicobacter pylori, UniProt O25506 1-94)
# T1 sequence: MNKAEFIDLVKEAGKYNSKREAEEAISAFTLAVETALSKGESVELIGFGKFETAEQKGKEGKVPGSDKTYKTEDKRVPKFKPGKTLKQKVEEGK
# B1: Hup-P64A protein (natural protein, Helicobacter pylori, UniProt O25506 1-94, looked up)
# chain: T1 sequence with P64A
# B2: Helicobacter pylori histone-like DNA binding protein (Hup), wild type (natural protein, UniProt O25506 1-94, looked up)
# chain: T1 sequence
# B3: hp-DNA (25-base A/T-rich hairpin) (structured_DNA)
# DNA: TTTTTTTTTTCGAAGAAAAAAAAAA
# How the values were obtained:
# NMR 1H-15N HSQC = target: the molecule itself; experiment: NMR 1H-15N HSQC
# SEC = target: the molecule itself; experiment: SEC
# [1] = target: T1, Hup-WT (histone-like DNA binding …); experiment: Tyr fluorescence quenching
binder,measurement,setting,value
B1,intensity ratio [dimer:monomer],NMR 1H-15N HSQC,~1.5
same,stoichiometry N,SEC,2
B2,stoichiometry N,SEC,2
B3,Kd,[1],500 ± 50 nM
